According to paper PMC5892705 (Science signaling, 2017):

How the values were obtained:
murine oxytocin receptor = target: T1, murine oxytocin receptor (mouse, UniProt P97926 1-388); test: cell-based or functional assay
T1 sequence: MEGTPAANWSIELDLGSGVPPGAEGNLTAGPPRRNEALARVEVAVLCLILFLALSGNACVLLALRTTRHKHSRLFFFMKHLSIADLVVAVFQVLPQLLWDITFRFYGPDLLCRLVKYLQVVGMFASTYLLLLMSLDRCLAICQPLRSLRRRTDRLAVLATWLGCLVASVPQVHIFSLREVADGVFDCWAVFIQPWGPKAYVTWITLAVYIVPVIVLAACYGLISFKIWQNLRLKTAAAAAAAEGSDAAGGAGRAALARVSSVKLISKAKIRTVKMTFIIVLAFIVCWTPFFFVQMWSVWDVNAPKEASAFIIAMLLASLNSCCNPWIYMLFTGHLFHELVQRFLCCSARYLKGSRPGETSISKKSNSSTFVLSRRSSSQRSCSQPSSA

human oxytocin receptor = target: T2, human oxytocin receptor (human, UniProt P30559 1-389); test: cell-based or functional assay
T2 sequence: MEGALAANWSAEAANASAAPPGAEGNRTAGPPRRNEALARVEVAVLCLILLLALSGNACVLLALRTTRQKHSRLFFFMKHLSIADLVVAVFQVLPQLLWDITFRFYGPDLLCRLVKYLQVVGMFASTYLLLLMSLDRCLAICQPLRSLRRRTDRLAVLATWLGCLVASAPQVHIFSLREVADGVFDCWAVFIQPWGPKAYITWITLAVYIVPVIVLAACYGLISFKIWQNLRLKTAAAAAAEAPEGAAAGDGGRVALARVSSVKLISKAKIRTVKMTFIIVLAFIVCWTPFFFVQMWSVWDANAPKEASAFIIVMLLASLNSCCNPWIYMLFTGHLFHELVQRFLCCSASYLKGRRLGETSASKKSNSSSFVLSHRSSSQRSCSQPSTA

[1] = target: human vasopressin V1a receptor (human, UniProt P37288 1-418); test: cell-based or functional assay
[2] = target: murine vasopressin V2 receptor (mouse, UniProt O88721 1-371); test: radioligand binding
Chain of murine vasopressin V2 receptor (O88721 whole entry): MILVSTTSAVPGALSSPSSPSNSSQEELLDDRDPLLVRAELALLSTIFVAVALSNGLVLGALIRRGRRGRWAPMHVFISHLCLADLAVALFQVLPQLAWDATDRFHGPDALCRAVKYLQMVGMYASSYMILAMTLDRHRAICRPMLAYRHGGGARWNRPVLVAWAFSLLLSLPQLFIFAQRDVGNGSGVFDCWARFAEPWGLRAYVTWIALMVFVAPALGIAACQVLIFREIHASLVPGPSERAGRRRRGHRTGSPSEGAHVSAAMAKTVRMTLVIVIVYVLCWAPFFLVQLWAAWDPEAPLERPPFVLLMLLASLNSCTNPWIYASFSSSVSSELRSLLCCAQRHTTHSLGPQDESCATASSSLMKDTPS

Chain of human vasopressin V1a receptor (P37288 whole entry): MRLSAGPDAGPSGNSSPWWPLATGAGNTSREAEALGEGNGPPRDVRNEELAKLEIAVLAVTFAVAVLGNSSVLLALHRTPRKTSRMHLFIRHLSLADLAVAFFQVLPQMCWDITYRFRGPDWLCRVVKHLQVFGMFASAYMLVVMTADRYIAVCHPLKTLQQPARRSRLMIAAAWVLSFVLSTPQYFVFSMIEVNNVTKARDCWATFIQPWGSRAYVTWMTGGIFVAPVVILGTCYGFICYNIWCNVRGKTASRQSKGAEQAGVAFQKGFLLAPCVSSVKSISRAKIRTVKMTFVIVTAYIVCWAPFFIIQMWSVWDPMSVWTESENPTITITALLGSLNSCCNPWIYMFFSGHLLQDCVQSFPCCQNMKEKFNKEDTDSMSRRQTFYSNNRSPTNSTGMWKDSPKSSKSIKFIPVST

B1: [Se-Se]-OT-OH (peptide)
chain: UYIQNUPLG
modifications: selenocysteine at positions 1 and 6, joined by a diselenide bond; C-terminal acid instead of the amide
- HTRF IP1 accumulation in transfected HEK293 cells, Emax (murine oxytocin receptor): 43%
- HTRF IP1 accumulation in transfected COS-1 cells, EC50 (human oxytocin receptor): 38 nM
- tissue bath, contraction amplitude of strips of pregnant human myometrium, EC50 (human oxytocin receptor): 5.89 nM
- FLIPR Ca2+ mobilization, EC50 [1]: > 10000 nM
- Ki1 (bi-phasic binding curve) [2]: 0.71 nM
